{"source": "paper PMC2391292", "molecular_target": "human CD81 tetraspanin membrane receptor, CD81-GlyGly-rho-1D4 (human) (UniProt P60033)", "sequence (P60033 whole entry)": "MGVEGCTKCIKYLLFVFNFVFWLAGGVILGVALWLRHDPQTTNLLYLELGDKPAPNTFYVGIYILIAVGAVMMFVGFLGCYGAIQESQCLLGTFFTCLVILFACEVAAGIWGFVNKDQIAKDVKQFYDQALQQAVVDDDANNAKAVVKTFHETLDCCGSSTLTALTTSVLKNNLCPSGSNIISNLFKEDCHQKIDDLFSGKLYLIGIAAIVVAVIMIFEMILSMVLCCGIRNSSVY", "assay": "ELISA; plates coated with 100 ng rho-1D4 antibody; 100 ng purified CD81 captured by its C-terminal tag; HCV-E2 added at 0.4 to 20 nM for 2 h at room temperature in 25 mM Tris-HCl pH 7.5, 144 mM NaCl, 0.05% DM; detected with goat anti-E2 polyclonal antibody; nonspecific binding (no rho-1D4) subtracted; non-linear regression", "data": [{"substance": "Recombinant HCV E2 envelope protein (from UniProt P27958 384-746) (ligand)", "values": [{"measurement": "Kd", "result": 3.8, "unit": "nM"}]}]}
